T1: hIL4R-His, Interleukin-4 receptor subunit alpha (Homo sapiens) aa 27-227 (Homo sapiens, UniProt P24394 27-227)
T1 construct: range 27-227; not shown: His tag as the name implies
T1 sequence (looked up): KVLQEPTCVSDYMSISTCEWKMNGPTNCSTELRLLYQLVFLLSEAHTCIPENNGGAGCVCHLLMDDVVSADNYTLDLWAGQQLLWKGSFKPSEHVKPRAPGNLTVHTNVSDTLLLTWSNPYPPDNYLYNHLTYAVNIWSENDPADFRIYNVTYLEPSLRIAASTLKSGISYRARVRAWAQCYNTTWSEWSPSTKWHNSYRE

T2: hisOX40, Tumor necrosis factor receptor superfamily member 4 (Homo sapiens) aa 26-210 (Homo sapiens, UniProt P43489 26-210)
T2 construct: range 26-210; The tag is put first only because the name begins with His; not shown: His tag as the name implies
T2 sequence (looked up): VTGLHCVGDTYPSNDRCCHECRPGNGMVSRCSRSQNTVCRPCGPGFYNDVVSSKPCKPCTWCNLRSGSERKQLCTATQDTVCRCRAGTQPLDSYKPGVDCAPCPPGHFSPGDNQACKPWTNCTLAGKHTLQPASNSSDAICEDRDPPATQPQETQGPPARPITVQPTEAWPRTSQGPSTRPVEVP

T3: C-Avi-His-TEVs-HSA_hBCMA, Tumor necrosis factor receptor superfamily member 17 (Homo sapiens) aa 1-54 (Homo sapiens, UniProt Q02223 1-54)
T3 construct: range 1-54; not shown: Avi, His, TEV site and HSA parts as the name implies
T3 sequence (looked up): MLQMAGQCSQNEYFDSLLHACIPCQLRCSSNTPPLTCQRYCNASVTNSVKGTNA

T4: IL5R-His, Interleukin-5 receptor subunit alpha (Homo sapiens) aa 22-342 (Homo sapiens, UniProt Q01344 22-342)
T4 construct: not shown: His tag as the name implies
T4 sequence (looked up): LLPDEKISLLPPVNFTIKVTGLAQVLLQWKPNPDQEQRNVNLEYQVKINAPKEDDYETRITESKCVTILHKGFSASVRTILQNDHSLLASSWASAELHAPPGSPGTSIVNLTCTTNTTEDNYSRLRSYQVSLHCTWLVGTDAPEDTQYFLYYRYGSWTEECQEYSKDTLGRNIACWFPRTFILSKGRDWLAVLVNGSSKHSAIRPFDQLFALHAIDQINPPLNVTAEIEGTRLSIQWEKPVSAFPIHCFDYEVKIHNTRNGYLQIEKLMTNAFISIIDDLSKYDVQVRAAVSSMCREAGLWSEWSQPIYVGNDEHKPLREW

T5: hCD38-Avi, ADP-ribosyl cyclase/cyclic ADP-ribose hydrolase 1 (Homo sapiens) aa 43-300 (Homo sapiens, UniProt P28907 43-300)
T5 construct: range 43-300; not shown: Avi tag as the name implies
T5 sequence (looked up): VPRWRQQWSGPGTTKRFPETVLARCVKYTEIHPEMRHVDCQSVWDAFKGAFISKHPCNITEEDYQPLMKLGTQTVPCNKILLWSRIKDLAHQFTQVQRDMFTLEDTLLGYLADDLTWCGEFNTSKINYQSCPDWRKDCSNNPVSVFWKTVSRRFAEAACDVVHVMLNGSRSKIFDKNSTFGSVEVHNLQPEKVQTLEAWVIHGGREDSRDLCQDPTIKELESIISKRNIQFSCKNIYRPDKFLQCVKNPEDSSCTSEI

B1: 02-006, bivalent bispecific chimeric antibody that specifically binds to PD1 and CSF1R (bispecific antibody, human IgG1, kappa, L234A L235A)
heavy 1: QVQLVQSGGGLVQPGGSLRLSCAASGFTFSSYWMYWVRQVPGKGLEWVSAIDTGGGRTYYADSVKGRFAISRVNAKNTMYLQMNSLRAEDTAVYYCARDEGGGTGWGVLKDWPYGLDAWGQGTLVTVSSASTKGPSVFPLAPSSKSTSGGTAALGCLVKDYFPEPVTVSWNSGALTSGVHTFPAVLQSSGLYSLSSVVTVPSSSLGTQTYICNVNHKPSNTKVDKRVEPKSCDKTHTCPPCPAPEAAGGPSVFLFPPKPKDTLYITREPEVTCVVVDVSHEDPEVKFNWYVDGVEVHNAKTKPREEQYNSTYRVVSVLTVLHQDWLNGKEYKCKVSNKALPAPIEKTISKAKGQPREPQVCTLPPSRDELTKNQVSLSCAVKGFYPSDIAVEWESNGQPENNYKTTPPVLDSDGSFFLVSKLTVDKSRWQQGNVFSCSVMHEALHNHYTQKSLSLSPGK
light 1: QPVLTQPLSVSVALGQTARITCGGNNIGSKNVHWYQQKPGQAPVLVIYRDSNRPSGIPERFSGSNSGNTATLTISRAQAGDEADYYCQVWDSSTAVFGTGTKLTVLQRTVAAPSVFIFPPSDEQLKSGTASVVCLLNNFYPREAKVQWKVDNALQSGNSQESVTEQDSKDSTYSLSSTLTLSKADYEKHKVYACEVTHQGLSSPVTKSFNRGEC
heavy 2: not shown
light 2: QAGLTQPPSVSVAPGQTARITCGGNNIGSKSVHWYQQKPGQAPVLVVYGDSDRPSGIPERFSGSNSGNTATLTISRVEAGDEADYYCQVWDISSDHVVFGGGTQLTVLQRQVKPEAWLSSGPSPGPGRLQLVCHVSGFYPKPVWVMWMRGEQEQQGTQLGDILPNANWTWYLRATLDVADGEAAGLSCRVKHSSLEGQDIILYWRGSC
notes: Produced in CHO cells
B2: 02-009, bivalent bispecific chimeric antibody that specifically binds to CD20 and CSF1R (bispecific antibody, human IgG1, kappa, L234A L235A)
heavy 1: QVQLVESGGGLVRPGGSLRLSCAASEFTFDDYAMSWVRQAPGKGLEWVSAISWNGGSTNYADSVKGRFTISRDNAKNSLYLQMNSLRAEDTALYYCASTVEVAHRRLYKYLEVWGQGTLVTVSSASTKGPSVFPLAPSSKSTSGGTAALGCLVKDYFPEPVTVSWNSGALTSGVHTFPAVLQSSGLYSLSSVVTVPSSSLGTQTYICNVNHKPSNTKVDKRVEPKSCDKTHTCPPCPAPEAAGGPSVFLFPPKPKDTLYITREPEVTCVVVDVSHEDPEVKFNWYVDGVEVHNAKTKPREEQYNSTYRVVSVLTVLHQDWLNGKEYKCKVSNKALPAPIEKTISKAKGQPREPQVCTLPPSRDELTKNQVSLSCAVKGFYPSDIAVEWESNGQPENNYKTTPPVLDSDGSFFLVSKLTVDKSRWQQGNVFSCSVMHEALHNHYTQKSLSLSPGK
light 1: QAGLTQPPSVSVAPGQTARITCGGNNIGSKSVHWYQQKPGQAPVLVVYGDSDRPSGIPERFSGSNSGNTATLTISRVEAGDEADYYCQVWDISSDHVVFGGGTQLTVLRTVAAPSVFIFPPSDEQLKSGTASVVCLLNNFYPREAKVQWKVDNALQSGNSQESVTEQDSKDSTYSLSSTLTLSKADYEKHKVYACEVTHQGLSSPVTKSFNRGEC
heavy 2: not shown
light 2: DIQMTQSPSSLSASVGDRVTITCRASSSVSYMHWYQQKPGKAPKPLIYAPSNLASGVPSRFSGSGSGTDFTLTISSLQPEDFATYYCQQWSFNPPTFGQGTKVEIKQRQVKPEAWLSSGPSPGPGRLQLVCHVSGFYPKPVWVMWMRGEQEQQGTQLGDILPNANWTWYLRATLDVADGEAAGLSCRVKHSSLEGQDIILYWRGSC
notes: Produced in CHO cells
B3: 02-007, bivalent bispecific chimeric antibody that specifically binds to PD1 and CSF1R (bispecific antibody, human IgG1, kappa, L234A L235A)
heavy 1: QVQLVESGGGLVRPGGSLRLSCAASEFTFDDYAMSWVRQAPGKGLEWVSAISWNGGSTNYADSVKGRFTISRDNAKNSLYLQMNSLRAEDTALYYCASTVEVAHRRLYKYLEVWGQGTLVTVSSASTKGPSVFPLAPSSKSTSGGTAALGCLVKDYFPEPVTVSWNSGALTSGVHTFPAVLQSSGLYSLSSVVTVPSSSLGTQTYICNVNHKPSNTKVDKRVEPKSCDKTHTCPPCPAPEAAGGPSVFLFPPKPKDTLYITREPEVTCVVVDVSHEDPEVKFNWYVDGVEVHNAKTKPREEQYNSTYRVVSVLTVLHQDWLNGKEYKCKVSNKALPAPIEKTISKAKGQPREPQVCTLPPSRDELTKNQVSLSCAVKGFYPSDIAVEWESNGQPENNYKTTPPVLDSDGSFFLVSKLTVDKSRWQQGNVFSCSVMHEALHNHYTQKSLSLSPGK
light 1: QAGLTQPPSVSVAPGQTARITCGGNNIGSKSVHWYQQKPGQAPVLVVYGDSDRPSGIPERFSGSNSGNTATLTISRVEAGDEADYYCQVWDISSDHVVFGGGTQLTVLRTVAAPSVFIFPPSDEQLKSGTASVVCLLNNFYPREAKVQWKVDNALQSGNSQESVTEQDSKDSTYSLSSTLTLSKADYEKHKVYACEVTHQGLSSPVTKSFNRGEC
heavy 2: not shown
light 2: QPVLTQPLSVSVALGQTARITCGGNNIGSKNVHWYQQKPGQAPVLVIYRDSNRPSGIPERFSGSNSGNTATLTISRAQAGDEADYYCQVWDSSTAVFGTGTKLTVLQQRQVKPEAWLSSGPSPGPGRLQLVCHVSGFYPKPVWVMWMRGEQEQQGTQLGDILPNANWTWYLRATLDVADGEAAGLSCRVKHSSLEGQDIILYWRGSC
notes: Produced in CHO cells

Columns and labels:
[1] = molecular target: T1, hIL4R-His, Interleukin-4 receptor …; test: BLI Octet RED 384; antibody on ProA sensor, antigen 30 ug/ml (1154 nM); response at end of association
Description: (§1) Experimental study of nonspecific binding of bispecific chimeric antibodies to non-target antigens was performed on Forte Bio Octert RED 384. Protein A (ProA) biosensors (ForteBio) were immersed into a solution containing antibodies at a concentration of 10 μg/ml for 150 seconds to immobilize same. The baseline was recorded in a 1×KB solution for 30 seconds. The antibody-loaded sensors were then immersed into wells containing non-target antigens at a concentration of 30 μg/ml for 150 seconds. Complex dissociation was then recorded for 30 seconds.
(§2) The reference sensors went through all the steps as the sensors used to record analyte sensograms did, with the exception of the association step—at the association step, the sensors were immersed in a kinetic buffer solution without analyte (the reference sensor signals were measured in parallel with the recording of the main sensograms). The reference signal was subtracted from the signal received on sensors interacting with the analyte during the processing of sensograms.
(§3) Sensograms were processed using ForteBio Octet Data Analysisn 9.0 software. To report no non-specific interaction, the recorded signal level was checked at the end of the association step (the response parameter).

[2] = molecular target: T2, hisOX40, Tumor necrosis factor receptor …; test: BLI Octet RED 384; antibody on ProA sensor, antigen 30 ug/ml (1310 nM); response at end of association
Description: as §1, §2, §3

[3] = molecular target: T6, extracellular domain of the human PD-1 protein (hPD1ex-H6F) (Homo sapiens, UniProt Q15116 21-170); test: BLI Octet RED 384; antibody on ProA sensor, antigen 30 ug/ml (1456 nM); response at end of association
T6 construct: Molecular weight 20.6 kDa; made in CHO cells; also called hPDlex-H6F; not shown: C-terminal His and FLAG tags
T6 sequence (Q15116 21-170 limits assumed, form in doubt): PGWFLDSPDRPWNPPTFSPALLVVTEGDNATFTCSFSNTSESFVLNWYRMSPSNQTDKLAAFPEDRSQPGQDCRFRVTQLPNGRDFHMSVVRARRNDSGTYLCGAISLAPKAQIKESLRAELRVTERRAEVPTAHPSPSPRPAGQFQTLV
Description: as §1, §2, §3

[4] = molecular target: T3, C-Avi-His-TEVs-HSA_hBCMA, Tumor …; test: BLI Octet RED 384; antibody on ProA sensor, antigen 30 ug/ml (391.2 nM); response at end of association
Description: as §1, §2, §3

[5] = molecular target: T7, Her3-H6F, Receptor tyrosine-protein kinase erbB-3 (Homo sapiens) aa 21-643 (Homo sapiens, UniProt P21860 21-643); test: BLI Octet RED 384; antibody on ProA sensor, antigen 30 ug/ml (420.8 nM); response at end of association
T7 construct: not shown: His and FLAG tags implied by the name 'H6F'
T7 sequence (P21860 21-643 limits assumed): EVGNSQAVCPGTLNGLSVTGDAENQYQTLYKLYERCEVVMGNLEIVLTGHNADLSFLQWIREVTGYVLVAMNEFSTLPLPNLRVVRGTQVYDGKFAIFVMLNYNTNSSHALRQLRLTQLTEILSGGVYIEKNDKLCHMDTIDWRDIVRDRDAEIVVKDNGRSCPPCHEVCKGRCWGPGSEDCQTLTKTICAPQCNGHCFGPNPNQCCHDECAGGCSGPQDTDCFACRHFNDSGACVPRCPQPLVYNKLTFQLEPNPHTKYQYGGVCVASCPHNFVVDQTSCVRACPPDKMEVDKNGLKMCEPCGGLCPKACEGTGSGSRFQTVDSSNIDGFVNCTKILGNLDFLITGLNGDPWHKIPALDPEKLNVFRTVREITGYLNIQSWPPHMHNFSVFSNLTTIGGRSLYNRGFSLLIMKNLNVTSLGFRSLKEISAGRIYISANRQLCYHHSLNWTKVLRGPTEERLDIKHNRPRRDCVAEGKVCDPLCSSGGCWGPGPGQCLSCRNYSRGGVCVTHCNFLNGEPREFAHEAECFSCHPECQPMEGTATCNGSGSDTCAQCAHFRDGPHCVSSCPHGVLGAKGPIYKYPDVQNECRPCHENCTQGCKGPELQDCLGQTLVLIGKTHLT
Description: as §1, §2, §3

[6] = molecular target: T8, Macaca CSF1R_C-His, Macrophage colony-stimulating factor 1 receptor (Macaca mulatta) aa 20-513 (Macaca mulatta); test: BLI Octet RED 384; antibody on ProA sensor, antigen 30 ug/ml (534.8 nM); response at end of association
T8 construct: range 20-513
Description: as §1, §2, §3

[7] = molecular target: T4, IL5R-His, Interleukin-5 receptor …; test: BLI Octet RED 384; antibody on ProA sensor, antigen 30 ug/ml (757.6 nM); response at end of association
Description: as §1, §2, §3

[8] = molecular target: T5, hCD38-Avi, ADP-ribosyl cyclase/cyclic …; test: BLI Octet RED 384; antibody on ProA sensor, antigen 30 ug/ml (854.7 nM); response at end of association
Description: as §1, §2, §3

Binder	Signal level (nm) [1] [nm]	Signal level (nm) [2] [nm]	Signal level (nm) [3] [nm]	Signal level (nm) [4] [nm]	Signal level (nm) [5] [nm]	Signal level (nm) [6] [nm]	Signal level (nm) [7] [nm]	Signal level (nm) [8] [nm]
B1	-0.0075	-0.0094	0.144	0.0009	-0.0115	0.587	0.0153	0.0158
B2	-0.0036	-0.0158	-0.0059	-0.0154	-0.0161	0.531	-0.0064	-0.0089
B3	0.0051	-0.0056	0.172	0.0061	-0.0063	0.535	0.0221	0.0088
